We go through 19 sequences from the DeepSol protein solubility set.

A short description of the series: soluble on expression in E. coli; label from the status in PepcDB or PDB records.
Regarding “MNLIPQDVLKKYLLPIRDLATSTFVFKKKYTRECQRSTPRNFINQFLLLFLKVPFSLLQELKLSKMLEIDKDKKVLIGCLAGSFLFYHTARQIYSYMSVKPREWVPVGVVKSLHIFPIKSCKSVDVFAFKCTKLGPVMGDLEDRAFMLVEESTGKFITARQKPKLVHVENYMTDGMLEVTVPGQPKLSVDLRKVLQNKRTIRATLFKNLKQDGYDCGDEVAKLLSDYIEEPNYRLIFYKEGLYTERTVIPDDQWWNNPVPKRNDDSGFTDLAPFHIATDASLKVLNEKLDNKITMRYFRPSIYIEGCAAWDEDKWAEIRIGDAHLECFAPCTRCVLTTVDPVKGEMSKEMQPLKKLREFRLVPDGKMRKVHMESPVFGVYAGLVNEGYIHTGQTVYVRYKPTAF”, the “soluble on expression in E. coli” value is “not soluble”.
Under “MNLLQCYPTTTVDEMNCEEWGNGTESTQSVAACQGCIELRKEVTDLRQAVNLILPMLPLYPTIGNGFNATGLAAQPTLQHVIQQSLLRKRPVAQTPTVPQPECPGQIRPVLSSPAAALQNVIMLNPWIMGSSLKPASPTLPNGQIPTTIGETSLQGTDDQTVKWIGPSSVDSNGQKTDSSAASAGDNQNIDVIGDGSESPTSSNHSAQEIALMTSQQTFLNALKDSSFLFTNPVPTVETAPPLRVAPPINGTTNGTAKAGGPERKPRKPVNDDIVKIVRNQDLSEENISMFEIPVPKAIASDPTFRPVSEQQIIQQIIQGKKYEEMEVGECMIQLCKKLAEKRVFGPRLMSQTTVAGLNHSNYANLPIKGICYIQHVCRKVLYDKFENEEDFWDKFREAMRKLAARCRRVRHAKKTKHNREEAQAEMLSKRYGEDMPFNLNGAGLIRPKVETVSPEANILNSDQIKSQLESLFAHIPKTESETPLIEIIQQNISLFTHLIRTKVESQSPPLQGPQ” stands “not soluble”.
Consider “MNLLVTSSLGVLLHLVVLCQADDHSELLVNTKSGKVMGTRVPVLSSHISAFLGIPFAEPPVGNMRFRRPEPKKPWSGVWNASTYPNNCQQYVDEQFPGFSGSEMWNPNREMSEDCLYLNIWVPSPRPKSTTVMVWIYGGGFYSGSSTLDVYNGKYLAYTEEVVLVSLSYRVGAFGFLALHGSQEAPGNVGLLDQRMALQWVHDNIQFFGGDPKTVTIFGESAGGASVGMHILSPGSRDLFRRAILQSGSPNCPWASVSVAEGRRRAVELGRNLNCNLNSDEELIHCLREKKPQELIDVEWNVLPFDSIFRFSFVPVIDGEFFPTSLESMLNSGNFKKTQILLGVNKDEGSFFLLYGAPGFSKDSESKISREDFMSGVKLSVPHANDLGLDAVTLQYTDWMDDNNGIKNRDGLDDIVGDHNVICPLMHFVNKYTKFGNGTYLYFFNHRASNLVWPEWMGVIHGYEIEFVFGLPLVKELNYTAEEEALSRRIMHYWATFAKTGNPNEPHSQESKWPLFTTKEQKFIDLNTEPMKVHQRLRVQMCVFWNQFLPKLLNATACDGELSSSGTSSSKGIIFYVLFSILYLIF”, for which the “soluble on expression in E. coli” value is reported as “soluble”.
With “MNLPQNIRYRRYQDWTEEEIKSIKTNVALSPWHTTYHIEPKTGLLNDPNGFSYFNGKFNLFYQNWPFGAAHGLKSWIHTESEDLVHFKETGTVLYPDTSHDSHGAYSGSAYEIGDQLFLFYTGNVRDENWVRHPLQIGAFMDKKGNIQKFTDVLIKQPNDVTEHFRDPQIFNYKGQFYAIVGAQSLDKKGFIKLYKAVDNDIKNWQEVGNLDFGGSKSEYMIECPNLVFINEQPVLIYSPQGLSKSELDYHNIYPNTYKVCQSFDTEKPALVDASEIQNLDFGFECYATQAFNAPDGRVYAVSWIGLPDIDYPSDSYDYQGALSLVKELSLKHGKLYQYPVEAVRSLRSEKEAVTYKPETNNTYELELTFDSSSVNELLLFADNKGNGLAITVDTKMGTILIDRSKAGEQYALEFGSQRSCSIQAKETVVNIFVDKSIFEIFINKGEKVFTGRVFPNDKQTGIVIKSGKPSGNYYELKYLEHHHHHH”, the “soluble on expression in E. coli” value is reported as “soluble”.
For the sequence “MNLSFKINSMYICVHNMDRAINFYENLFNCKVTGKDEIYSVFDINGFRYGLFANKKTGEKKIWGNNCLPSFQVNDIDLILEKLKELNCPIVFPLTNIGKNKVLEFTDCEGNAIEITSPIKLEHHHHHH”, the “soluble on expression in E. coli” value is listed as “not soluble”.
As to “MNMANVKIKIRDGLIDRLRNMSGITSDEAFARTIGTSRSTLVDVKTGEREPSLAFAIGIAQAFGLGLSEIVTWETETTAA”, the “soluble on expression in E. coli” value is “not soluble”.
Under “MNMPLMIDLTNKNVVIVGGGVVASRRAQTLNQYVEHMTVISPTITEKLQNMVDNGVVIWKEKEFEPSDIVDAYLVIAATNEPRVNEAVKKALPEHALFNNVGDASNGNVVFPSALHRDKLTISVSTDGASPKLTKSIMAELEALYPPSYSSYIDFLYTCRQKIKVLDITYNEKQQLLSQIVSQEYLNHDKQAQFLAWLDVR” stands “not soluble”; under “MNMTKNAFQFGIEPVRITDTDNIQVNEGLPTNADPQVYALQLAKTVKAMLNGVLKDAQDNIPFPVEVLPTRNSLPTPIIAHTLADRSVLVPVRGGKRPEVVTAPSGTEITVEPIEQAILVSHQTKLWDQKSTTGFTQGTLQQDALNICDNVIRTINSKMVDVLESSKLLKTVELPALTGSLTAKADAIMDALYENTESSFGSEVSDYGIIAHESHLKALSRLAAKQGFGGEDAIVDMLGTDVAYYNGEDRGVFMMAKRFTALSFGCFRHDGESITVVLSRDGDSQSHDLEILGKVFVVAEAATTIKMGTGSATAVLPVVKRLSFTKEAN”, “not soluble”; under “MNMYSMPGYFQNMPTIGKELVNPNPENEQEIKAVESDIHESIKKALDAGITSEEKLNERGQLSAMQRINALIDPGTWCPLNSLFNPENNKFGTTNIVNGLGRVDGKWVYIVASDNKKMAGAWVPGQAENLIRCSDAAKMMHLPLIYLLNCSGVEFPNQDKVYPNRRGGGTPFFRNSELNQLGIPVIVGIYGTNPAGGGYHSISPTILIAHQDANMAVGGAGILSGMNPKGYIDDEAAEQIIAAQIENSKLKVPAPGSVPIHYDETGFFREVYQNDLGVIDGIKKYISYLPAYNLEFFRVDTPKAPQLPAEDLYSIIPMNQKRPYDIYEVIARLFDNSEFSEYKKGYGPEMVTGLAKVNGLLVGVIANVQGLLMNYPEYKQNSVGIGGKLYRQGLIKMNEFVTLCARDRIPLIWLQDTTGIDVGDEAEKAELLGLGQSLIYSIENSKLPSLEITIRKASAAAHYVLGGPQGNNTNVFSIGTGACEYYVMPGETAANAMYSRKLVKAKKAGEDLQPIIGKMNDMIQMYTDKSRPKYCTEKGMVDEIVDMTEVRPYIQAFTEAAYQNPQSICPMHQMLTPRSTREFETFGK”, “soluble”.
“MNNIWWQTKGQGNVHLVLLHGWGLNAEVWRCIDEELSSHFTLHLVDLPGFGRSRGFGALSLADMAEAVLQQAPDKAIWLGWSLGGLVASQIALTHPERVQALVTVASSPCFSARDEWPGIKPDVLAGFQQQLSDDFQRTVERFLALQTMGTETARQDARALKKTVLALPMPEVDVLNGGLEILKTVDLRQPLQNVSMPFLRLYGYLDGLVPRKVVPMLDKLWPHSESYIFAKAAHAPFISHPAEFCHLLVALKQRV”: the “soluble on expression in E. coli” value was “soluble”.
Under “MNNKLIYRSVRFATHNSQLLLPPLVLYRRILRQHKLLPGPQREMGDQYVRNEFKLHKDIDNPLHIVGFLASWQDYLHMISNGKWKDATLSSETLEKLSPEQTVQLYELMKETQKLHQDNEIESSKDVKRNNKD” stands “not soluble”.
Under “MNNSIPERFIFQCALFKNLEREVFMTHGYVDSHIIDQALRLRLKDETSVILSDLYLQILQYIEMHKTTLTDIIINDRESVLSAAALEHHHHHH” stands “not soluble”; under “MNPGGILMTTDIYFSHNNPHDPYAHHTTELNRDTHHLWVVLTTDSDDFDADSFTTEVIRITGYSRHEVNNGLNAMAAMTNLPHLRAIQERYYFLSIRYLASIMIAVAKADPTLWEELDLRITDALTPVTAGEVMIQSSTLSKRIAAWIKELDPEPTPEPIPKEDYVHVHTTDEATYVRIKISGPNRLILNDIITQLKDTDTEDSLPEALMAFLMEKIQLKITKYLFTPHKHPEQVWSPDYGDIGPEAYANATLVCAKDLDEVAGATEKSYTPSEKMKALIRARDGHCRFPGCCVPASKCQVDHIIPWAEGGPTAAWNLQLLCQRHHNMKTDGRFTADANGLAEIRWIGPMDVPAVTRPTGPLVKAMPRGIWGQVLRDRIQARFERIRVRALNKEDLEHHHHHH”, “not soluble”; under “MNPIPADVAAVVLAGGVGRRFGRPKALAMMDGISLVERAVEALSSGPADVYVSVSPALERPVARLVGSRRVIVDLVEQAPCEGPLRAFLTAASTLVSYSNLVFMPVDAPWASWRDLEPIYNASKAIGSGASYFSGEGIVHPLFLAARRKSLLTAAWTACWGRAEKRASAILRSLDPLILLGSSETRSPLALATVNTPQDLWRPSRVPAPAEGYILLEGHSILYKISSTMNSYYSALALEAEYKLYRRLGLLRLASHVLKDAAALNVSTSLIQQESMAGGLGLEHHHHHH”, “not soluble”.
In the case of “MNPIQHILDTYPLIVLDGAMATELERKGCNLNDSLWSAKILMEEPELIKQVHTDYFAAGADCAITASYQSTFEGFAARGLSEAEARRLIELSVSIAAEARDEFWSLEENRLNRPKPIIAASIGPYGAYLADGSEYRGNYAISEDELIEFHRPRMKALIEAGADVLACETIPCLTEAKAIVRLLKEFPETYAWISFSAKDGLHISDGTPAADCASWLDEHRQIAALGINCTPLQHIPSLIEELKKNTSKPIIVYPNSGEQYDPETKTWNGAACAESYGASARTWHEKGARLIGGCCRTKPENIQEIAAWARSLKTT”, the “soluble on expression in E. coli” value was “soluble”.
The value for “MNPVAFIREKREGKKHRREDLEAFLLGYLRDEVPDYQVSAWLMAAFLRGLDPEETLWLTETMARSGKVLDLSGLPHPVDKHSSGGVGDKVSLVVGPILAASGCTFAKMSGRGLAHTGGTIDKLESVPGWRGEMTEAEFLERARRVGLVIAAQSPDLAPLDGKLYALRDVTATVESVPLIASSIMSKKLAAGARSIVLDVKVGRGAFMKTLEEARLLAKTMVAIGQGAGRRVRALLTSMEAPLGRAVGNAIEVREAIEALKGEGPGDLLEVALALAEEALRLEGLDPALARKALEGGAALEKFRAFLEAQGGDPRAVEDFSLLPLAEEHPLRAEREGVVREVDAYKVGLAVLALGGGRKRKGEPIDHGVGVYLLKKPGDRVERGEALALVYHRRRGLEEALGHLREAYALGEEAHPAPLVLEAI” was “soluble”; that for “MNQELKLRPLEREDLKFVHELNNNAHIMSYWFEEPYEAFVELQDLYDKHIHDQSERRFIVEKDNEMVGLVELVEIDYIHRRTEFQIIIDPNYQGYGYAVEATRLAMDYAFAVLNMHKIYLVVDKENEKAVHVYKKVGFMVEGELIDEFFVDGNYHNAIRMCMFQKQYFENK” was “not soluble”; that for “MNQKAVILDEQAIRRALTRIAHEMIERNKGMNNCILVGIKTRGIYLAKRLAERIEQIEGNPVTVGEIDITLYRDDLSKKTSNDEPLVKGADIPVDITDQKVILVDDVLYTGRTVRAGMDALVDVGRPSSIQLAVLVDRGHRELPIRADYIGKNIPTSKSEKVMVQLDEVDQNDLVAIYENE” was “soluble”.
The value for “MNQLNGQQLNDIILVLQNFTHSTLKKDLISLNAFKKAELTCGILRIELSMPFVWQTGFEALQAEVEQQLKQITGASGVKWVLNYQIATLKRANNHPAVNGVKNIIAVTSGKGGVGKSTTSINLALALQAQGAKVGILDADIYGPSIPHMLGAQDQRPTSPDNRHITPIEAYGIQSNSIGYLMAEDNATIWRGPMASSALSQLLNETWWTDLDYLVIDMPPGTGDIQLTLSQQIPVTGAVVVTTPQDIALLDAIKGIAMFQKVAVPVLGVIENMSVHICQNCGHQEAIFGTGGASKVAEKYNTQLLGQLPLHIRLRQDLDAGTPTVVADPTHEISQAYLALAAKVAAELYWQGTVIPSEIMIREVK” was “not soluble”.
